Data reported in doi:10.1101/2022.12.09.519754, “Conformational restriction shapes inhibition of a multidrug efflux adaptor protein” (bioRxiv, 2022).
Residue numbers refer to the chain shown, from its start.

T1: AcrB in SMALP (styrene maleic acid lipid particle) native nanodiscs (E. coli, UniProt P31224 1-1049)
T1 construct: AcrB, inner membrane transporter of AcrAB-TolC, E. coli; Embedded in native lipid nanodiscs; also called trimeric AcrB SMALPs; source: E. coli C43(DE3) ΔacrAB, pET15b; extracted from membranes with 2.5% SMA 2000, purified (nickel NTA, PD-10 desalting)
T1 sequence: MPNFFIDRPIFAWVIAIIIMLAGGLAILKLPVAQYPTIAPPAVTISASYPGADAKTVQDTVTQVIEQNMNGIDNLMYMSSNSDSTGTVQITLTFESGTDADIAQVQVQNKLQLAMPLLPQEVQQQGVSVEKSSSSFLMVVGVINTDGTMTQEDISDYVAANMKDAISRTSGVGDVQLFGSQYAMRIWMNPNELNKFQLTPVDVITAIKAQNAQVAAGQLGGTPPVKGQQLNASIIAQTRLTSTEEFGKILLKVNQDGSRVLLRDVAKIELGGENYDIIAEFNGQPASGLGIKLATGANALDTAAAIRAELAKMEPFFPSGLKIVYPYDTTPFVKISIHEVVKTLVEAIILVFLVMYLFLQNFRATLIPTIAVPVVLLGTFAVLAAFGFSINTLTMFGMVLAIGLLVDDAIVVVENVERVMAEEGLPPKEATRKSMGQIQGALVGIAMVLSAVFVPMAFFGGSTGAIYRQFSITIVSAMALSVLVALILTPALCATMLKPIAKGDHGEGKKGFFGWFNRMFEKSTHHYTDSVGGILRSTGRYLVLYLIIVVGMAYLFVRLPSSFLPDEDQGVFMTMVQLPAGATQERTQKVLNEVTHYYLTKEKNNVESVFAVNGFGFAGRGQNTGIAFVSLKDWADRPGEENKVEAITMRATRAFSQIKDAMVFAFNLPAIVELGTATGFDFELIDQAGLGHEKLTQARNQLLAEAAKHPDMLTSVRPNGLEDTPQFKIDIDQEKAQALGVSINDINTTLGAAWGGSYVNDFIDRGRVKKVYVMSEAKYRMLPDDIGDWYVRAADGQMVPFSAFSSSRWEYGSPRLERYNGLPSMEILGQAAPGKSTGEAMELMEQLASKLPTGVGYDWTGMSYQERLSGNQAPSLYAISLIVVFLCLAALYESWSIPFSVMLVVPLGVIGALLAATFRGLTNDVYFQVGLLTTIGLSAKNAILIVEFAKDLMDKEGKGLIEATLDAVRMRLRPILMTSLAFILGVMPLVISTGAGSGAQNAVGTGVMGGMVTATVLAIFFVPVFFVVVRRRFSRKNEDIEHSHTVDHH

B1: AcrA^L (lipidated AcrA, expressed from full length AcrA with its signal peptide) (natural protein)
chain: CDDKQAQQGGQQMPAVGVVTVKTEPLQITTELPGRTSAYRIAEVRPQVSGIILKRNFKEGSDIEAGVSLYQIDPATYQATYDSAKGDLAKAQAAANIAQLTVNRYQKLLGTQYISKQEYDQALADAQQANAAVTAAKAAVETARINLAYTKVTSPISGRIGKSNVTEGALVQNGQATALATVQQLDPIYVDVTQSSNDFLRLKQELANGTLKQENGKAKVSLITSDGIKFPQDGTLEFSDVTVDQTTGSITLRAIFPNPDHTLLPGMFVRARLEEGLNPNAILVPQQGVTRTPRGDATVLVVGADDKVETRPIVASQAIGDKWLVTEGLKAGDRVVISGLQKVRPGVQVKAQEVTADNNQQAASGAQPEQSKS
modifications: lipidated (palmitoylation) at Cys25 after cleavage of signal peptide 1-24
notes: AcrA, periplasmic adaptor protein of AcrAB-TolC, E. coli; full length AcrA amplified from genomic DNA; signal peptide residues 1-24 are cleaved and Cys25 is lipidated, so the protein in the assay starts at Cys25; Measured in DDM micelles (0.03 % DDM, 2 x CMC); source: E. coli C43(DE3) ΔacrAB, pET28a; solubilised from membranes with 1% DDM, purified (HiTrap, SEC) in 0.03% DDM
B2: AcrA^S (soluble AcrA lacking signal peptide and lipidation, Cys25Met) (natural protein)
chain: B1 chain with C1M
notes: AcrA, E. coli; lacks signal peptide residues 1-24; Cys25 replaced by a starting methionine (Met25); not lipidated; source: E. coli C43(DE3) ΔacrAB, pET28a; purified from the cytoplasmic fraction (HiTrap, SEC)

What was measured:
[1] = molecular target: the molecule itself; experiment: native MS; AcrA^L in 100 mM ammonium acetate pH 6.0 with 0.03 % DDM (2 x CMC); sampling cone 120 V, trap collision energy 50-200 V
[2] = molecular target: the molecule itself; experiment: native MS; AcrA^L in 100 mM ammonium acetate pH 7.4 with 0.03 % DDM
[3] = molecular target: T1, AcrB in SMALP (styrene maleic acid …); experiment: native gel or EMSA; SMA-PAGE (native PAGE for SMALPs): AcrB in SMALP nanodiscs with AcrA^S or AcrA^SD; Novex Tris-glycine 4-20% gels, 25 mM Tris pH 8.8, 192 mM glycine, 150 V, 90-120 min, 4 °C, Coomassie stain; details: both partners purified

Binder | stoichiometry N [1] | stoichiometry N [2] | stoichiometry N [3]
B1 | 2 | ≤ 5 | –
B2 | – | – | 1
